From US20100260765A1 (AstraZeneca / MedImmune, published 2010)

B1: anti-KDR monoclonal antibody 32F4 (antibody, V domains shown)
VH: QLQLQESGPGLVKPSGTLSLSCTVSGGSISSRSDYWGWIRQPPGKGLEWIGTIYYSGNTFYNPSLKSRVTISVDTSKKQFSLKLSSVTAADTAVYYCARQQLVLYYFDYWGQGTLVTVSS
VL: EIVLTQSPGTLSLSPGERATLSCRTSQSVSSSYLAWYQQKPGQAPRLLIYGASSRATGVPDRFSGSGSGTDFSLTISRLEPEDFAVYYCQQYGSSPPLTFGGGTKVEIK
notes: Fully human mAb from XenoMouse (IgG2 or IgG4 strain); hybridoma supernatant
B2: anti-KDR monoclonal antibody 31E11 (antibody, V domains shown)
VH: QVQLVESGGGLVKPGGSLRLSCAASGFTFSDYYMSWIRQAPGKGLEWVSYISISGSTIYYADSVKGRFTISRDNAKNSLYLQMNSLRAEDTAVYYCARDDFWSGYYFNWFDPWGQGTLVTVSS
VL: DIQMTQSPSSLSASVGDRVTITCRANQTISTFLNWYQQNPGKAPKLLIYAASSLQSGVPSRFSGSGSGTDFTLTISSLQPEDFATYYCQQTYIIPLTFGGGTKVEIK
notes: as for B1
B3: 30H10 (antibody, V domains shown)
VH: EVQLLESGGGLVQPGGSLRLSCAASGFTFSNYAMSWVRQAPGKGLEWVSAISGSGGITYYADSVKGRFTISRDNSKNTLFLQMNSLRAEDTAVYYCAKASGDNWGQGTLVSVSS
VL: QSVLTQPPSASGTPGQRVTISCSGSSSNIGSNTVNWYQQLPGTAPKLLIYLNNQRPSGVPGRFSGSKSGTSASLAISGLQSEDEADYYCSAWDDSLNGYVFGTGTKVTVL
notes: Fully human monoclonal antibody from a XenoMouse hybridoma (IgG2 or IgG4 strain), purified

Columns and labels:
[1] = target: T1, human KDR (VEGFR2) on cells (human, UniProt P35968 20-1356); assay: cell-based or functional assay
[2] = target: T1, human KDR (VEGFR2) on cells; assay: cell-based or functional assay; remark: listed apart in the source
[3] = target: T1, human KDR (VEGFR2) on cells; assay: cell-based or functional assay; remark: listed apart in the source
[4] = target: T1, human KDR (VEGFR2) on cells; assay: FACS on HUVEC, hybridoma supernatant 1:50
Method in brief: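 HUVECs incubated 1 h at 4° C with hybridoma supernatant at 1:50, then Cy5 goat anti-human antibody (5 μg/mL) plus 7AAD (5 μg/mL) for 15 min at 4° C. Cell-surface binding read by FACS; goat anti-KDR antibody as positive control, irrelevant hybridoma supernatants as negative controls.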

[5] = target: T2, mouse KDR (Flk-1)/Fc (Cat. #443-KD/CF, R&D Systems) (mouse, UniProt P35918 20-762); assay: ELISA, plate-coated Flk-1/Fc 500 ng/mL, hybridoma supernatant 1:5
T2 construct: Bought reagent; also called mouse VEGFR2; KDR mouse ortholog; Fc part of the bought chimera not given
Procedure: The cross-reactivity of antibodies in the hybridoma supernatant was tested against KDR mouse ortholog (mouse VEGFR2, or Flk-1) and human VEGFR1 (Flt-1). Cross-reactivity was measured using an ELISA based assay.
After washing and blocking the plates, the antibody-containing supernatants were added (at 1:5 dilution) into the coated wells and incubated for one hour at room temperature. The plates were then incubated with mouse anti-human IgG 2, 3 and 4 and subsequently with goat anti-mouse IgG Fc POD, to detect and measure bound antibodies.

[6] = target: T3, soluble KDR (VEGF Receptor 2 D1-7, Cat. #676490, Calbiochem) (human, UniProt P35968 20-764); assay: ELISA, plate-coated soluble KDR 250 ng/mL, hybridoma supernatant 1:5
T3 construct: extracellular domain; Bought reagent; also called soluble human KDR; immobilized soluble KDR
Procedure: To screen by binding to immobilized soluble KDR, plates were coated with KDR (Calbiochem) at 250 ng/mL overnight at 4° C. After blocking and washing the coated plates, the candidate hybridoma supernatants (at 1:5 dilution) were transferred to the plates and incubated for one hour at room temperature. The plates were then washed and incubated with secondary antibody (at 1:4000 dilution) for one hour at room temperature.

b-KDRIg4-7-myc-his = target: T4, b-KDRIg4-7-myc-his (UniProt P35968 328-764, prefix 'b-' not explained; captured on neutravidin-coated plates (presumably biotinylated, site not stated)); assay: ELISA, b-KDRIg4-7-myc-his 1 ug/mL on neutravidin, hybridoma supernatant 1:5
T4 construct: domain: Ig4-7; The text calls it 'a KDR antibody containing the Ig4-7 domain'; it is read as the KDR fragment; Purified on a nickel column; also called Ig4-7 domain of KDR; soluble KDR Ig4-7; not shown: myc-his tag of the pSecTag vector
Procedure: To screen by binding to the Ig4-7 domain of KDR, plates were first coated with neutravadin (Pierce) at 4 μg/mL and incubated overnight at 4° C. The plates were then blocked and subsequently incubated with b-KDRIg4-7-myc-his at 1 μg/mL for one hour at room temperature. Candidate hybridoma supernatants (at 1:5 dilution) were transferred to the plates and incubated for one hour at room temperature. The plates were then washed and incubated with goat anti-human IgG Fc POD (at 1:4000 dilution) for one hour at room temperature.

human KDR [7] = target: T5, human KDR (human, UniProt P35968 20-1356); assay: cell-based or functional assay
human KDR [8] = target: T5, human KDR; assay: cell-based or functional assay; remark: listed apart in the source
human KDR [9] = target: T5, human KDR; assay: cell-based or functional assay; remark: listed apart in the source
[10] = target: T6, whole KDR-ECD (Cat. # 676490, Calbiochem) (human, UniProt P35968 20-764); assay: ELISA, KDR-ECD coat 5 ug/mL, antibody 1 ug/mL
T6 construct: extracellular domain; Bought soluble protein; also called soluble KDR; VEGF Receptor 2 D1-7
Procedure: (§1) The cross-reactivity of purified antibodies was tested against KDR mouse ortholog KDR mouse ortholog (mouse VEGFR2, or Flk-1) and human VEGFR1 (Flt-1). The ability of the antibodies to bind soluble KDR Ig4-7 domain and to the entire KDR extracellular domain (ECD) was also measured.
(§2) Cross-reactivity experiments were carried out and measured using an ELISA based assay as described in Example 6. […] Antibody controls included IgG1 and IgG4 (Sigma-Aldrich, Cat. #15154 and #14639, respectively).

[11] = target: T6, whole KDR-ECD (Cat. # 676490, …); assay: ELISA, KDR-ECD coat 5 ug/mL, antibody 0.1 ug/mL
Procedure: as §1, §2

[12] = target: T6, whole KDR-ECD (Cat. # 676490, …); assay: ELISA, KDR-ECD coat 5 ug/mL, antibody 0.01 ug/mL
Procedure: as §1, §2

soluble KDR Ig4-7 domain [13] = target: T7, soluble KDR Ig4-7 domain (human, UniProt P35968 328-764); assay: ELISA, KDR Ig4-7 coat (1:1 diln.), antibody 1 ug/mL
T7 construct: domain: Ig4-7 domain; also called b-KDRIg4-7-myc-his; Ig4-7 domain of KDR; not shown: myc-his tag of the pSecTag construct
Procedure: as §1, §2

soluble KDR Ig4-7 domain [14] = target: T7, soluble KDR Ig4-7 domain; assay: ELISA, KDR Ig4-7 coat (1:1 diln.), antibody 0.1 ug/mL
Procedure: as §1, §2

soluble KDR Ig4-7 domain [15] = target: T7, soluble KDR Ig4-7 domain; assay: ELISA, KDR Ig4-7 coat (1:1 diln.), antibody 0.01 ug/mL
Procedure: as §1, §2

human KDR [16] = target: T5, human KDR; assay: FACS titration of purified antibody on HUVEC cells (FACS Kd)
Procedure: The binding affinities of the purified antibodies for endogenously-expressed KDR in HUVEC cells was measured. HUVEC cells were seeded at 150,000 cells/well and incubated with titrations of purified antibody for 4 hours at 4° C. The cells were then washed and incubated with goat anti-human IgG-Fc-Cy5+5 μg/mL 7-Amino-Actinomycin (7AAD) for 30 minutes at 4° C. Bound KDR was detected using FACS analysis.

T6 sequence (P35968 20-764): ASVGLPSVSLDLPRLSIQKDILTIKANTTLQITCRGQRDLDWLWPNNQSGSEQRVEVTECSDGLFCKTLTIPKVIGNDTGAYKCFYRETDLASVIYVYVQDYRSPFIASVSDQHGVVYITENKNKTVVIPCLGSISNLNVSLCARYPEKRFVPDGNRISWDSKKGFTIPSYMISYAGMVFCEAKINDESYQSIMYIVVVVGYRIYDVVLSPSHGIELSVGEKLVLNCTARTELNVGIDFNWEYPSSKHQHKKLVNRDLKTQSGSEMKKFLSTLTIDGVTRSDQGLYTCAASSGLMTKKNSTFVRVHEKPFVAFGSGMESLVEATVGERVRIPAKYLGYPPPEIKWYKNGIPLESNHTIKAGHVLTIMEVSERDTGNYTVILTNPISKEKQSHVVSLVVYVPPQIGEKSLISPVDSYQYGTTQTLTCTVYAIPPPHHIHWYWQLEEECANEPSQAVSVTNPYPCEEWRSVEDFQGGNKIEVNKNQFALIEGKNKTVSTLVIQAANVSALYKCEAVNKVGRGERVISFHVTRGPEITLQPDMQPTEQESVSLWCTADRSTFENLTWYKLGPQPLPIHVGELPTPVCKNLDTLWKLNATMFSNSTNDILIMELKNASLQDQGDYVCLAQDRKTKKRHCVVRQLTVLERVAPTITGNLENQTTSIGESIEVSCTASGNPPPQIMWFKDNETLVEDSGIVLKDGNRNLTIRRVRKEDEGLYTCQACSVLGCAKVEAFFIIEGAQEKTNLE
T5 sequence (P35968 20-1356): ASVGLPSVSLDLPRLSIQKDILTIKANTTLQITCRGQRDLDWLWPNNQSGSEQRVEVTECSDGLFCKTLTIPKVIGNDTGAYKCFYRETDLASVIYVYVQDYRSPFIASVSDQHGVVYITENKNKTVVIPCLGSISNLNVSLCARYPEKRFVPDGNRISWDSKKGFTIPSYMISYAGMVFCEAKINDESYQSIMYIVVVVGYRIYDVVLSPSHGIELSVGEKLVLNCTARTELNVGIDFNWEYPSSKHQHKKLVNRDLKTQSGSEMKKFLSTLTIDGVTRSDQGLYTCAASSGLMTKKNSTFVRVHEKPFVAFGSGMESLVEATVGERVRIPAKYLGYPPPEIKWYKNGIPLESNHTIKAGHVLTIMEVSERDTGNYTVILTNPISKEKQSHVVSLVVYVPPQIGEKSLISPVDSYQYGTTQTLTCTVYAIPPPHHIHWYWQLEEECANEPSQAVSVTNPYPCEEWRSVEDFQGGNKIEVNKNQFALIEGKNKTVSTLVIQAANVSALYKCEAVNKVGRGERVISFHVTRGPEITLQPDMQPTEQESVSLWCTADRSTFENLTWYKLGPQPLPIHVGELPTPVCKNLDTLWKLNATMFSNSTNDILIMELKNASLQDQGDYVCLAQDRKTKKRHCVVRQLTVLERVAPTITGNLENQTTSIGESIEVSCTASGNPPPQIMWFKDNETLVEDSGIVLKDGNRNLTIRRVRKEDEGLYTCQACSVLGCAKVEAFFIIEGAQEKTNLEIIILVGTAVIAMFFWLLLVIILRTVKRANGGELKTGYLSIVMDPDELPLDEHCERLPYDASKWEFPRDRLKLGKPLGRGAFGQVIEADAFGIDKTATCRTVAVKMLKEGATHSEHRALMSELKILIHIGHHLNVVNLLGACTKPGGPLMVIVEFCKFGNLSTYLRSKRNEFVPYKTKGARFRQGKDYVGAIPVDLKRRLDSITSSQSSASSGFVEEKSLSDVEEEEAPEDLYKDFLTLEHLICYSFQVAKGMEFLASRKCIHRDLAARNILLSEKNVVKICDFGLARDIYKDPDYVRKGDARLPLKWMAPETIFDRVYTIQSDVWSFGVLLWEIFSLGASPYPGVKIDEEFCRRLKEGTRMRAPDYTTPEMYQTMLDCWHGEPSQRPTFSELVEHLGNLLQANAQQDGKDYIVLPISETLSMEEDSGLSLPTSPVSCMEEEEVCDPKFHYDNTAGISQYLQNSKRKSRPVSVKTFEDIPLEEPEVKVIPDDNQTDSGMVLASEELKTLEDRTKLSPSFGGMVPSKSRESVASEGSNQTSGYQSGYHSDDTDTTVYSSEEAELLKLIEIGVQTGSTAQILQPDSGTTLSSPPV
T1 sequence (P35968 20-1356): as above
T7 sequence (P35968 328-764): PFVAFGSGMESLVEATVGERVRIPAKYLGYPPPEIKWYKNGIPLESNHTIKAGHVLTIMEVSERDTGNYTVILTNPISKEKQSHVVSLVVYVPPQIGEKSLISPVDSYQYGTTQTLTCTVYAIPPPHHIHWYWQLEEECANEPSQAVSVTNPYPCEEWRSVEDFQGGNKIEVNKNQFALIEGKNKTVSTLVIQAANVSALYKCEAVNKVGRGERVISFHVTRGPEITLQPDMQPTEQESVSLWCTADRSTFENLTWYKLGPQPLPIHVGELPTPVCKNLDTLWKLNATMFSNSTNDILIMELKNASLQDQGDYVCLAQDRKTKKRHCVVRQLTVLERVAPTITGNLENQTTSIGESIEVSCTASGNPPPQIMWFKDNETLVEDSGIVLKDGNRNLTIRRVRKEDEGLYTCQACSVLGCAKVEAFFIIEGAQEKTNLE
T3 sequence (P35968 20-764): as the sequence (P35968 20-764) above
T4 sequence (P35968 328-764): as the sequence (P35968 328-764) above
T2 sequence (P35918 20-762): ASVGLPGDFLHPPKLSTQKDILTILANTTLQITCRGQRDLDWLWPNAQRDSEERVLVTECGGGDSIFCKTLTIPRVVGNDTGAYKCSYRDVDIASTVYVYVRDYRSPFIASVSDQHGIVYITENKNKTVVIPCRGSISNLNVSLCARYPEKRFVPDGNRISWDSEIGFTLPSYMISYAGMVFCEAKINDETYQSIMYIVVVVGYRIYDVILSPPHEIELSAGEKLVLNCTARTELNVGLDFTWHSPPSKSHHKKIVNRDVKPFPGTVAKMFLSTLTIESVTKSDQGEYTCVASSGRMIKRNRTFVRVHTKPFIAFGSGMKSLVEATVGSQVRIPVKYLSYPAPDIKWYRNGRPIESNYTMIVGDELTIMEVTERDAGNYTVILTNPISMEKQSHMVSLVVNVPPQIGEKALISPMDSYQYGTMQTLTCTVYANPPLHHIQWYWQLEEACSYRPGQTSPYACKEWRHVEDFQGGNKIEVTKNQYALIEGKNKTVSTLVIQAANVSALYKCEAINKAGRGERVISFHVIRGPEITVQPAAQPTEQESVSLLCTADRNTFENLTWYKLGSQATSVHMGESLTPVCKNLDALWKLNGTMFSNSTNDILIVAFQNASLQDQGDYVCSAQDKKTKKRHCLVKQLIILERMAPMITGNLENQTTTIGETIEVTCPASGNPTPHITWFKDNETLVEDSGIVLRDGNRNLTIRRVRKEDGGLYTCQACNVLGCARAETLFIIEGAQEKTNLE

| Binder | % Inhibition of VEGF165-mediated pTyr Activity, Average [1] [%] | % Inhibition of VEGF165-mediated pTyr Activity, n = 1 [1] [%] | % Inhibition of VEGF165-mediated pTyr Activity, n = 2 [1] [%] | % Inhibition of VEGF165-mediated pTyr Activity, n = 3 [1] [%] | % Inhibition of VEGF-E-mediated pTyr Activity [2] [%] | HUVEC survival (n = 1) 1:10 dilution of supernatant (RLU) [3] [RLU] | HUVEC survival (n = 2) 1:20 dilution of supernatant (RLU) [3] [RLU] | FACS Geometric Mean [4] | OD (450 nm) [5] [OD450] | KDR OD(450 nm) [6] [OD450] | b-KDRIg4-7 OD(450 nm) (b-KDRIg4-7-myc-his) [OD450] | further results |
| --- | --- | --- | --- | --- | --- | --- | --- | --- | --- | --- | --- | --- |
| B1 | 73 | 88 | 76 | 56 | 62 | 20100 | 5030 | 27 | 0.094 | 0.907 | 2.29 |  |
| B2 | 74 | 81 | 80 | 59 | 67 | 9140 | 6980 | 18 | 0.162 | 1.14 | 1.28 |  |
| B3 |  |  |  |  |  |  |  |  |  |  |  | KDR tyrosine phosphorylation in HUVEC, EC50 (nM), Average (human KDR [7]): 0.4 nM; KDR tyrosine phosphorylation in HUVEC, EC50 (nM), N = 1 (human KDR [7]): 0.6 nM; KDR tyrosine phosphorylation in HUVEC, EC50 (nM), N = 2 (human KDR [7]): 0.2 nM; KDR tyrosine phosphorylation in HUVEC, Maximum Inhibition at 100 nM (% Inhibition), Average (human KDR [7]): 29%; KDR tyrosine phosphorylation in HUVEC, Maximum Inhibition at 100 nM (% Inhibition), N = 1 (human KDR [7]): 36%; KDR tyrosine phosphorylation in HUVEC, Maximum Inhibition at 100 nM (% Inhibition), N = 2 (human KDR [7]): 22%; HUVEC survival, Maximum Inhibition at 50 nM (% Inhibition), Average (human KDR [8]): -5%; HUVEC survival, Maximum Inhibition at 50 nM (% Inhibition), N = 1 (human KDR [8]): -9%; HUVEC survival, Maximum Inhibition at 50 nM (% Inhibition), N = 2 (human KDR [8]): -1%; 6-keto Prostaglandin F1α release, Maximum Inhibition (% Inhibition), Average (human KDR [9]): 3%; 6-keto Prostaglandin F1α release, Maximum Inhibition (% Inhibition), N = 1 (200 nM) (human KDR [9]): 0%; 6-keto Prostaglandin F1α release, Maximum Inhibition (% Inhibition), N = 2 (333 nM) (human KDR [9]): 6%; ELISA reading [10]: 2.47; ELISA reading [11]: 0.31; ELISA reading [12]: 0.117; ELISA reading (soluble KDR Ig4-7 domain [13]): 3.04; ELISA reading (soluble KDR Ig4-7 domain [14]): 2.77; ELISA reading (soluble KDR Ig4-7 domain [15]): 1.36; Kd (human KDR [16]): 900 pM |
